# Results reported in IntAct's records for PubMed 23598340.
# B1: Ktr system potassium uptake protein B (Bacillus subtilis), O32081 (parent)
# chain: MTLQKDKVIKWVRFTPPQVLAIGFFLTIIIGAVLLMLPISTTKPLSWIDALFTAASATTVTGLAVVDTGTQFTVFGQTVIMGLIQIGGLGFMTFAVLIVMILGKKIGLKERMLVQEALNQPTIGGVIGLVKVLFLFSISIELIAALILSIRLVPQYGWSSGLFASLFHAISAFNNAGFSLWPDNLMSYVGDPTVNLVITFLFITGGIGFTVLFDVMKNRRFKTFSLHTKLMLTGTLMLNAIAMLTVFILEYSNPGTLGHLHIVDKLWASYFQAVTPRTAGFNSLDFGSMREGTIVFTLLLMFIGAGSASTASGIKLTTFIVILTSVIAYLRGKKETVIFRRSIKYPIIIKALAVSVTSLFIVFLGIFALTITEQAPFLQIVFETFSAFGTVGLTMGLTPELTTAGKCIIIVIMFIGRIGPLTFVFSFAKTEQSNIRYPDGEVFTG
# partner: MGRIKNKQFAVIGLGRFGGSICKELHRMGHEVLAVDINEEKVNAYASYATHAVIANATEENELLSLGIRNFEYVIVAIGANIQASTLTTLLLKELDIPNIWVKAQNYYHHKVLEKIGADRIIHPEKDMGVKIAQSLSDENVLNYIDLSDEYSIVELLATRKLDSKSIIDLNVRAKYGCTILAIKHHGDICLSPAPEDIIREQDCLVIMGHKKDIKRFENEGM
# Variants of: B1
# Conditions: with ktra_bacsu ktrA
row,effect of a mutation on the interaction,Variant
1,decreasing interaction strength,MTLQKDKVIKWVRFTPPQVLAIGFFLTIIIGAVLLMLPISTTKPLSWIDALFTAASATTVTGLAVVDTGTQFTVFGQTVIMGLIQIGGLGFMTFAVLIVMILGKKIGAKERMLVQEALNQPTIGGVIGLVKVLFLFSISIELIAALILSIRLVPQYGWSSGLFASLFHAISAFNNAGFSLWPDNLMSYVGDPTVNLVITFLFITGGIGFTVLFDVMKNRRFKTFSLHTKLMLTGTLMLNAIAMLTVFILEYSNPGTLGHLHIVDKLWASYFQAVTPRTAGFNSLDFGSMREGTIVFTLLLMFIGAGSASTASGIKLTTFIVILTSVIAYLRGKKETVIFRRSIKYPIIIKALAVSVTSLFIVFLGIFALTITEQAPFLQIVFETFSAFGTVGLTMGLTPELTTAGKCIIIVIMFIGRIGPLTFVFSFAKTEQSNIRYPDGEVFTG [L108A]
